According to patent US20040018957A1, “Crystal structure of a Ras-P13K complex” (priority 2000, published 2004):
Substitutions are numbered along the chain they refer to. Names may count otherwise.

B1: V223K: tighter-binding PI3Kγ mutant used for co-crystallisation with Ras (protein, UniProt P48736 1-1102, looked up, variant V223K)
Phosphatidylinositol …: MELENYKQPVVLREDNCRRRRRMKPRSAAASLSSMELIPIEFVLPTSQRKCKSPETALLHVAGHGNVEQMKAQVWLRALETSVAADFYHRLGPHHFLLLYQKKGQWYEIYDKYQVVQTLDCLRYWKATHRSPGQIHLVQRHPPSEESQAFQRQLTALIGYDVTDVSNVHDDELEFTRRGLVTPRMAEVASRDPKLYAMHPWVTSKPLPEYLWKKIANNCIFIKIHRSTTSQTIKVSPDDTPGAILQSFFTKMAKKKSLMDIPESQSEQDFVLRVCGRDEYLVGETPIKNFQWVRHCLKNGEEIHVVLDTPPDPALDEVRKEEWPLVDDCTGVTGYHEQLTIHGKDHESVFTVSLWDCDRKFRVKIRGIDIPVLPRNTDLTVFVEANIQHGQQVLCQRRTSPKPFTEEVLWNVWLEFSIKIKDLPKGALLNLQIYCGKAPALSSKASAESPSSESKGKVQLLYYVNLLLIDHRFLLRRGEYVLHMWQISGKGEDQGSFNADKLTSATNPDKENSMSISILLDNYCHPIALPKHQPTPDPEGDRVRAEMPNQLRKQLEAIIATDPLNPLTAEDKELLWHFRYESLKHPKAYPKLFSSVKWGQQEIVAKTYQLLARREVWDQSALDVGLTMQLLDCNFSDENVRAIAVQKLESLEDDDVLHYLLQLVQAVKFEPYHDSALARFLLKRGLRNKRIGHFLFWFLRSEIAQSRHYQQRFAVILEAYLRGCGTAMLHDFTQQVQVIEMLQKVTLDIKSLSAEKYDVSSQVISQLKQKLENLQNSQLPESFRVPYDPGLKAGALAIEKCKVMASKKKPLWLEFKCADPTALSNETIGIIFKHGDDLRQDMLILQILRIMESIWETESLDLCLLPYGCISTGDKIGMIEIVKDATTIAKIQQSTVGNTGAFKDEVLNHWLKEKSPTEEKFQAAVERFVYSCAGYCVATFVLGIGDRHNDNIMITETGNLFHIDFGHILGNYKSFLGINKERVPFVLTPDFLFVMGTSGKKTSPHFQKFQDICVKAYLALRHHTNLLIILFSMMLMTGMPQLTSKEDIEYIRDALTVGKNEEDAKKYFLDQIEVCRDKGWTVQFNWFLHLVLGIKQGEKHSA
B2: T232D: PI3Kγ RBD mutant (protein, UniProt P48736 1-1102, looked up, variant T232D)
Phosphatidylinositol …: B1 Phosphatidylinositol … with K223V, T232D
B3: K251A: PI3Kγ RBD mutant (protein, UniProt P48736 1-1102, looked up, variant K251A)
Phosphatidylinositol …: B1 Phosphatidylinositol … with K223V, K251A
B4: K255A: PI3Kγ RBD mutant (protein, UniProt P48736 1-1102, looked up, variant K255A)
Phosphatidylinositol …: B1 Phosphatidylinositol … with K223V, K255A
B5: K234A: PI3Kγ mutant of a switch II contact residue (protein, UniProt P48736 1-1102, looked up, variant K234A)
Phosphatidylinositol …: B1 Phosphatidylinositol … with K223V, K234A

Each molecule was assayed against T1, N-Ras.mant-GMPPNP (Homo sapiens, UniProt P01111) (assay: Fluorescence anisotropy titration of PI3Kγ 144-1102 into N-Ras.mant-GMPPNP). Details: mutants in the 144-1102 construct, FIG. 2A.
T1 construct: fluorescence anisotropy of full length, unmodified N-Ras.mant-GMPPNP
Format: binding
Description: Mant-nucleotides were synthesised as described previously (Jameson and Eccleston, 1997). N-Ras and H-Ras mutants were loaded with mant-GMPPNP as in (Moore et al., 1993), gel filtered into running buffer (20 mM Tris pH 7.5, 2 mM MgCl2, 1 mM DTT), and frozen at −80° C. The concentration of Ras.mant-GMPPNP was determined by measuring the absorbance of the mant group at […] with ε=5700 M^−1 cm^−1 (Hiratsuka, 1983). For binding assays, the 144-1102 human PI3Kγ was titrated into a 1 μM solution of fill length, unmodified N-Ras.mant-GMPPNP. Data were collected with SLM 8000 S and ISS PC1 spectrofluorimeters, set up in the T-format and L-format, respectively, with prism polarizers. All measurements were taken at 20° C. with a λex of 366 nm. Both emission PMTs were fitted with 399 nm cutoff filters. Five measurements of each data point were obtained and averaged. Data were fitted to the binding equation.

T1 sequence (P01111 whole entry): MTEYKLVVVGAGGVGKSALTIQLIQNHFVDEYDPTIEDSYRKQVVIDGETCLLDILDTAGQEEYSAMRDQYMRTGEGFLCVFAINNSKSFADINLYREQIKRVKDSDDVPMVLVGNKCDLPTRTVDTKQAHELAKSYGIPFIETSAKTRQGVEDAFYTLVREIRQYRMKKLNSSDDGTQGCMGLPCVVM

Q: B1 was tested. Which “effect of PI3Kγ RBD mutation on binding to Ras” value (shortened to “effect of PI3Kγ RBD mutation”) did it give?
A: tighter-binding

Q: B2 was tested. Which “effect of PI3Kγ RBD mutation” value did it give?
A: eliminate binding

Q: For B3, which “effect of PI3Kγ RBD mutation” value is on record?
A: eliminate binding

Q: With B4 as the molecule, how does the “effect of PI3Kγ RBD mutation” value read?
A: eliminate binding

Q: Which “effect of PI3Kγ RBD mutation” value does the source give for B5 here?
A: probably increases the Kd

Each molecule was assayed against N-Ras.GDP (Homo sapiens, UniProt P01111) (assay: Binding of PI3Kγ constructs to N-Ras.GDP). Details: not given.
Chain of N-Ras.GDP (P01111 whole entry): as above

Q: Which “binding to N-Ras.GDP” value does the source give for B1 here?
A: Neither the wild-type protein, the pseudo wild-type (V327A, see methods), nor the V223K mutant exhibit detectable binding
